The assay addresses T1, Choline kinase alpha, full-length (FL) wild type (human, UniProt P35790 1-457).
T1 construct: Choline kinase alpha, unspliced variant ChoKα1, 457 residues, human, UniProt P35790; full length, up to Val457; Cleaved ChoKα constructs were the probes of the pull-downs; also called ChoKα; ChoKα1; source: E. coli Rosetta (DE3)pLysS, purified (HisTrap Ni2+ column, S-200 gel filtration); not shown: His6, N-terminal, cleaved; SUMO, N-terminal, cleaved
The experiment in a line: SPR; SH3 domains immobilised on one CM5 chip, ChoKα injected in triplicate, 0.1 to 30 µM, 2 min, PBS pH 7.5, 30 µL/min; steady-state KD from RUmax. To be noted: both partners purified. (In general: SPR reads the build-up and loss of mass on a sensor chip optically.)

The term Kd denotes the constant that tells how readily two partners part at equilibrium.

T1 sequence (P35790 whole entry, canonical isoform): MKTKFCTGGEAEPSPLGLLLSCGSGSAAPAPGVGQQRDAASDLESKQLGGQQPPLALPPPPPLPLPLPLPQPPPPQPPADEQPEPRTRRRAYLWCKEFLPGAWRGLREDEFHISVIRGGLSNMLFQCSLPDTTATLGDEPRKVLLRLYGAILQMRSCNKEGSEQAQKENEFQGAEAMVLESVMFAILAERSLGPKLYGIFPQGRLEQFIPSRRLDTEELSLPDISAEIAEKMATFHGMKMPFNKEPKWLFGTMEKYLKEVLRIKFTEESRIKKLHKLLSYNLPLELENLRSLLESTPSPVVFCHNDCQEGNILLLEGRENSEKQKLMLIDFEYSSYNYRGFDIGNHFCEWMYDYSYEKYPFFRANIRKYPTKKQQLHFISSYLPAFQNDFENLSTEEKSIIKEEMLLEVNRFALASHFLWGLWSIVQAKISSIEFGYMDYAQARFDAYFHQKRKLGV

B1: Hck SH3 domain (domain or fragment)
chain: not shown
notes: Src-family kinase Hck, SH3 domain; source: recombinant, purified
Molecule B1 displayed a Kd of 25.9 µM.

These data come from publication PMC6864063, “Molecular basis for the interaction between human choline kinase alpha and the SH3 domain of the c-Src tyrosine kinase” (Scientific Reports, 2019).
